From article PMC12102759 (2025) come the findings set out here.

The chains are these.
B1: PRDM14 peptide 196-211 (PR domain zinc finger protein 14), 16-mer library wild type / NSP3 SUD-M (ORF1ab Nsp3c SUD-M, residues 1356-1493) (parent complex)
chain 1: QFTEEDLHFVLYGVTP
chain 2: LPSIISNEKQEILGTVSWNLREMLAHAEETRKLMPVCVETKAIVSTIQRKYKGIKIQEGVVDYGARFYFYTSKTTVASLINTLNDLNETLVTMPLGYVTHGLNLEEAARYMRSLKVPATVSVSSPDAVTAYNGYLTSS
B2: PEX5 peptide 240-255 (Peroxisomal targeting signal 1 receptor), 16-mer library wild type / PEX14 Pex14 (PEX14 PEX14, residues 16-84) (parent complex)
chain 1: AEQWAAEFIQQQGTSD
chain 2: TPGSENVLPREPLIATAVKFLQNSRVRQSPLATRRAFLKKKGLTDEEIDMAFQQSGTAADEPSSLGPAT
B3: NOTCH4 peptide 1606-1621 (Neurogenic locus notch homolog protein 4), 16-mer library wild type / NSP9 (ORF1ab Nsp9, residues 4141-4253) (parent complex)
chain 1: QGAWLGAPEPWEPLLD
chain 2: NNELSPVALRQMSCAAGTTQTACTDDNALAYYNTTKGGRFVLALLSDLQDLKWARFPKSDGTGTIYTELEPPCRFVTDTPKGPKVKYLYFIKGLNNLNRGMVLGSLAATVRLQ

Variants of B1 are the subject of one assay. In words: bait immobilised on MaxiSorp plates (10 µg), library pre-cleared on GST, 2 h binding at 4 °C, five washes; one round per day, days 1-4; value from days 2 and 3.
In the case of chain 1 QFTEEDRHFVLYGVTP, the screen value is 7.05e-05 average fractional NGS count over selection days 2 and 3 (reads of this peptide / all reads for the bait, averaged over ….

For chain 1 QFTEEVLHFVLYGVTP, the screen value is 5.37e-05 average fractional NGS count over selection days 2 and 3 (reads of this peptide / all reads for the bait, averaged over ….

As for chain 1 QFTEEGLHFVLYGVTP, the screen value was 5.78e-05 average fractional NGS count over selection days 2 and 3 (reads of this peptide / all reads for the bait, averaged over ….

For the variant chain 1 QFTEEELHFVLYGVTP, the screen value is 0.0721 average fractional NGS count over selection days 2 and 3 (reads of this peptide / all reads for the bait, averaged over ….

As to chain 1 QFTEEALHFVLYGVTP, the screen value was 6.63e-05 average fractional NGS count over selection days 2 and 3 (reads of this peptide / all reads for the bait, averaged over ….

For chain 1 QFTEEDLVFVLYGVTP, the screen value was 0.000167 average fractional NGS count over selection days 2 and 3 (reads of this peptide / all reads for the bait, averaged over ….

With chain 1 QFTEEDLMFVLYGVTP, the screen value is 0.194 average fractional NGS count over selection days 2 and 3 (reads of this peptide / all reads for the bait, averaged over ….

For the variant chain 1 QFTEEDLNFVLYGVTP, the screen value was 0.00229 average fractional NGS count over selection days 2 and 3 (reads of this peptide / all reads for the bait, averaged over ….

As to chain 1 QFTEEDLKFVLYGVTP, the screen value was 0.000229 average fractional NGS count over selection days 2 and 3 (reads of this peptide / all reads for the bait, averaged over ….

chain 1 QFTEEDLIFVLYGVTP: the screen value is 8.91e-05 average fractional NGS count over selection days 2 and 3 (reads of this peptide / all reads for the bait, averaged over ….

As to chain 1 QFTEEDLTFVLYGVTP, the screen value was 0.000106 average fractional NGS count over selection days 2 and 3 (reads of this peptide / all reads for the bait, averaged over ….

On to chain 1 QFTEEDLEFVLYGVTP, for which the screen value is 4.27e-05 average fractional NGS count over selection days 2 and 3 (reads of this peptide / all reads for the bait, averaged over ….

On to chain 1 QFTEEDLRFVLYGVTP, for which the screen value is 0.0209 average fractional NGS count over selection days 2 and 3 (reads of this peptide / all reads for the bait, averaged over ….

On to chain 1 QFTEEDLLFVLYGVTP, for which the screen value is 0.000127 average fractional NGS count over selection days 2 and 3 (reads of this peptide / all reads for the bait, averaged over ….

For the variant chain 1 QFTEEDLYFVLYGVTP, the screen value is 5.98e-05 average fractional NGS count over selection days 2 and 3 (reads of this peptide / all reads for the bait, averaged over ….

For chain 1 QFTEEDLAFVLYGVTP, the screen value was 0.00113 average fractional NGS count over selection days 2 and 3 (reads of this peptide / all reads for the bait, averaged over ….

As to chain 1 QFTEEDLHFVLYGVTK, the screen value is 9.04e-05 average fractional NGS count over selection days 2 and 3 (reads of this peptide / all reads for the bait, averaged over ….

With chain 1 QFTEEDLHFVLYGVTH, the screen value was 0.000235 average fractional NGS count over selection days 2 and 3 (reads of this peptide / all reads for the bait, averaged over ….

Consider chain 1 QFTEEDLHFVLYGVTF, for which the screen value is 0.000936 average fractional NGS count over selection days 2 and 3 (reads of this peptide / all reads for the bait, averaged over ….

As to chain 1 QFTEEDLHFVLYGVTY, the screen value is 0.000111 average fractional NGS count over selection days 2 and 3 (reads of this peptide / all reads for the bait, averaged over ….

In the case of chain 1 QFTEEDLHFVLYGVTD, the screen value is 0.004 average fractional NGS count over selection days 2 and 3 (reads of this peptide / all reads for the bait, averaged over ….

Turning to chain 1 QFTEEDLHFVLYGVTS, the screen value was 0.145 average fractional NGS count over selection days 2 and 3 (reads of this peptide / all reads for the bait, averaged over ….

For the variant chain 1 QFTEEDLHFVLYGVTE, the screen value was 9.32e-05 average fractional NGS count over selection days 2 and 3 (reads of this peptide / all reads for the bait, averaged over ….

Take chain 1 QFTEEDLHFVLYGVTR: the screen value is 6.57e-05 average fractional NGS count over selection days 2 and 3 (reads of this peptide / all reads for the bait, averaged over ….

Consider chain 1 QFTEEDLHFVLYGVTL, for which the screen value was 0.00707 average fractional NGS count over selection days 2 and 3 (reads of this peptide / all reads for the bait, averaged over ….

For the variant chain 1 QFTEEDLHFVLYGVTV, the screen value is 0.000126 average fractional NGS count over selection days 2 and 3 (reads of this peptide / all reads for the bait, averaged over ….

As for chain 1 QFTQEDLHFVLYGVTP, the screen value was 4.52e-05 average fractional NGS count over selection days 2 and 3 (reads of this peptide / all reads for the bait, averaged over ….

chain 1 QFTEEDLHFVLMGVTP: the screen value was 4.44e-05 average fractional NGS count over selection days 2 and 3 (reads of this peptide / all reads for the bait, averaged over ….

Turning to chain 1 QFTEEDLHFVLEGVTP, the screen value is 0.000104 average fractional NGS count over selection days 2 and 3 (reads of this peptide / all reads for the bait, averaged over ….

On to chain 1 QFSEEDLHFVLYGVTP, for which the screen value is 0.000238 average fractional NGS count over selection days 2 and 3 (reads of this peptide / all reads for the bait, averaged over ….

As for chain 1 QFTEEDLHFVLYGLTP, the screen value was 4.25e-05 average fractional NGS count over selection days 2 and 3 (reads of this peptide / all reads for the bait, averaged over ….

As for chain 1 QFTEEDLHFVLYGITP, the screen value is 7.71e-05 average fractional NGS count over selection days 2 and 3 (reads of this peptide / all reads for the bait, averaged over ….

Variants of B2 are the subject of a further assay. In words: proteomic peptide phage display deep mutational scan (ProP-PD DMS): M13 P8 16-mer library selected against immobilised GST-tagged bait for four days (rounds), NGS of the eluted pools per day and pseudo-replica; bait immobilised on MaxiSorp plates (10 µg), library pre-cleared on GST, 2 h binding at 4 °C, five washes; one round per day, days 1-4; value from days 2 and 3.
Turning to chain 1 NEQWAAEFIQQQGTSD, the screen value is 0.00349 average fractional NGS count over selection days 2 and 3 (reads of this peptide / all reads for the bait, averaged over ….

Take chain 1 MEQWAAEFIQQQGTSD: the screen value is 0.000375 average fractional NGS count over selection days 2 and 3 (reads of this peptide / all reads for the bait, averaged over ….

Consider chain 1 YEQWAAEFIQQQGTSD, for which the screen value is 0.017 average fractional NGS count over selection days 2 and 3 (reads of this peptide / all reads for the bait, averaged over ….

In the case of chain 1 DEQWAAEFIQQQGTSD, the screen value is 0.00705 average fractional NGS count over selection days 2 and 3 (reads of this peptide / all reads for the bait, averaged over ….

In the case of chain 1 AEQWAEEFIQQQGTSD, the screen value was 0.000449 average fractional NGS count over selection days 2 and 3 (reads of this peptide / all reads for the bait, averaged over ….

For the variant chain 1 AEQWAWEFIQQQGTSD, the screen value is 0.00422 average fractional NGS count over selection days 2 and 3 (reads of this peptide / all reads for the bait, averaged over ….

As to chain 1 AEQWAAEFIQAQGTSD, the screen value is 0.00173 average fractional NGS count over selection days 2 and 3 (reads of this peptide / all reads for the bait, averaged over ….

In the case of chain 1 AEQWAAEFIQQQGVSD, the screen value is 0.000546 average fractional NGS count over selection days 2 and 3 (reads of this peptide / all reads for the bait, averaged over ….

Take chain 1 AEQWYAEFIQQQGTSD: the screen value is 0.00174 average fractional NGS count over selection days 2 and 3 (reads of this peptide / all reads for the bait, averaged over ….

As to chain 1 AEQWQAEFIQQQGTSD, the screen value was 0.00841 average fractional NGS count over selection days 2 and 3 (reads of this peptide / all reads for the bait, averaged over ….

With chain 1 AEQWAAVFIQQQGTSD, the screen value was 0.000633 average fractional NGS count over selection days 2 and 3 (reads of this peptide / all reads for the bait, averaged over ….

With chain 1 AETWAAEFIQQQGTSD, the screen value was 0.00148 average fractional NGS count over selection days 2 and 3 (reads of this peptide / all reads for the bait, averaged over ….

As for chain 1 AEQWAAEFIQQQHTSD, the screen value was 0.00793 average fractional NGS count over selection days 2 and 3 (reads of this peptide / all reads for the bait, averaged over ….

As for chain 1 AEQWAAEFNQQQGTSD, the screen value is 0.00185 average fractional NGS count over selection days 2 and 3 (reads of this peptide / all reads for the bait, averaged over ….

For the variant chain 1 AEQWAAEFVQQQGTSD, the screen value was 0.00275 average fractional NGS count over selection days 2 and 3 (reads of this peptide / all reads for the bait, averaged over ….

Consider chain 1 AEQWAAEFEQQQGTSD, for which the screen value is 0.00149 average fractional NGS count over selection days 2 and 3 (reads of this peptide / all reads for the bait, averaged over ….

On to chain 1 AEQWAAEFIPQQGTSD, for which the screen value was 0.00113 average fractional NGS count over selection days 2 and 3 (reads of this peptide / all reads for the bait, averaged over ….

Another assay covers variants of B3. As to the kind of experiment: bait immobilised on MaxiSorp plates (10 µg), library pre-cleared on GST, 2 h binding at 4 °C, five washes; one round per day, days 1-4; value from days 2 and 3.
In the case of chain 1 QGFWLGAPEPWEPLLD, the screen value is 0.00137 average fractional NGS count over selection days 2 and 3 (reads of this peptide / all reads for the bait, averaged over ….

As for chain 1 QGAWLGAPEPWGPLLD, the screen value is 0.00333 average fractional NGS count over selection days 2 and 3 (reads of this peptide / all reads for the bait, averaged over ….

For chain 1 QGAYLGAPEPWEPLLD, the screen value was 0.000452 average fractional NGS count over selection days 2 and 3 (reads of this peptide / all reads for the bait, averaged over ….

Take chain 1 QGAWLAAPEPWEPLLD: the screen value is 9.6e-05 average fractional NGS count over selection days 2 and 3 (reads of this peptide / all reads for the bait, averaged over ….

For the variant chain 1 QGAWLGAEEPWEPLLD, the screen value was 0.000231 average fractional NGS count over selection days 2 and 3 (reads of this peptide / all reads for the bait, averaged over ….

As to chain 1 EGAWLGAPEPWEPLLD, the screen value is 0.00488 average fractional NGS count over selection days 2 and 3 (reads of this peptide / all reads for the bait, averaged over ….

For the variant chain 1 QGAWLGAPEPWEYLLD, the screen value is 0.000242 average fractional NGS count over selection days 2 and 3 (reads of this peptide / all reads for the bait, averaged over ….

For chain 1 QGAWLGRPEPWEPLLD, the screen value was 0.000186 average fractional NGS count over selection days 2 and 3 (reads of this peptide / all reads for the bait, averaged over ….

With chain 1 QGAWLGAPESWEPLLD, the screen value is 0.000591 average fractional NGS count over selection days 2 and 3 (reads of this peptide / all reads for the bait, averaged over ….

As for chain 1 QGAWLGAPIPWEPLLD, the screen value is 0.00116 average fractional NGS count over selection days 2 and 3 (reads of this peptide / all reads for the bait, averaged over ….

Turning to chain 1 QGAWLGAPGPWEPLLD, the screen value was 0.00198 average fractional NGS count over selection days 2 and 3 (reads of this peptide / all reads for the bait, averaged over ….

chain 1 QGAWLGAPWPWEPLLD: the screen value was 0.00272 average fractional NGS count over selection days 2 and 3 (reads of this peptide / all reads for the bait, averaged over ….

For chain 1 QGAWLGAPEPLEPLLD, the screen value is 0.0119 average fractional NGS count over selection days 2 and 3 (reads of this peptide / all reads for the bait, averaged over ….

For the variant chain 1 QGAWLGAPEPDEPLLD, the screen value is 0.000384 average fractional NGS count over selection days 2 and 3 (reads of this peptide / all reads for the bait, averaged over ….

With chain 1 QGAWLGAPEPSEPLLD, the screen value is 0.000466 average fractional NGS count over selection days 2 and 3 (reads of this peptide / all reads for the bait, averaged over ….
